Publication PMC12216052 (2025)

How the values were obtained:
ACVR2A = ACVR2A (Homo sapiens (Human), UniProt P27037); assay: SPR steady state, receptor-Fc on chip, monomer analyte
ACVR1B = biological target: T1, ACVR1B (Homo sapiens (Human), UniProt P36896); assay: as above
T1 chain: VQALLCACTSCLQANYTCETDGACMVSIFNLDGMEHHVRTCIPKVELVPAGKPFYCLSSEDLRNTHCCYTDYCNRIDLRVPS

Chain of ACVR2A (P27037 25-118): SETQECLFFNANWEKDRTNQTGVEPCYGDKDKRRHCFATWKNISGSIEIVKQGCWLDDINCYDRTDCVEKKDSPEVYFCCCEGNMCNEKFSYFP

B1: DLK1 (protein)
chain: VANSCTPNPCENDGVCTDIGGDFRCRCPAGFIDKTCSRPVTNCASSPCQNGGTCLQHTQVSYECLCKPEFTGLTCVKK
ACVR2A
  Kd: > 10 µM
ACVR1B
  Kd: > 10 µM
